Test results taken from patent US20090022728A1 (RINAT NEUROSCIENCE, published 2009).
Numbering of substitutions follows the chain as printed.

B1: 9TL variant 22-T/I Fab (Fab, V domains shown)
VH: QVQLVQSGAEVKKPGASVKVSCKASGYYTEAYYIHWVRQAPGQGLEWMGRIDPATGNTKYAPRLQDRVTMTRDTSTSTVYMELSSLRSEDTAVYYCASLYSLPVYWGQGTTVTVSS
VL: DVVMTQSPLSLPVTLGQPASISCKSSQSLLYSDAKTYLNWFQQRPGQSPRRLIYQISRLDPGVPDRFSGSGSGTDFTLKISRVEAEDVGVYYCLQGTHYPVIFGQGTRLEIKR
notes: Fab; human IgG2 CH1 and kappa CL
B2: 9TL variant M15 Fab (Fab, V domains shown)
VH: B1 VH
VL: B1 VL with Y99P, I102L
notes: as for B1
B3: 9TL variant M21 Fab (Fab, V domains shown)
VH: B1 VH
VL: B1 VL with Y99E, I102L
notes: as for B1
B4: 9TL variant M14 Fab (Fab, V domains shown)
VH: B1 VH
VL: B1 VL with H98L, I102L
notes: as for B1
B5: 9TL variant M18 Fab (Fab, V domains shown)
VH: B1 VH
VL: B1 VL with Y99Q, I102L
notes: as for B1
B6: 9TL variant M11 Fab (Fab, V domains shown)
VH: B1 VH
VL: B1 VL with G96S, I102L
notes: as for B1
B7: 9TL variant M10 Fab (Fab, V domains shown)
VH: B1 VH
VL: B1 VL with L94S, I102L
notes: Fab; human IgG2 CH1 and kappa CL; same printed substitution as M7
B8: 9TL variant M25 Fab (Fab, V domains shown)
VH: B1 VH
VL: B1 VL with V101T, I102L
notes: as for B1
B9: 9TL variant M4 Fab (Fab, V domains shown)
VH: B1 VH
VL: B1 VL with L94F, I102L
notes: as for B1
B10: 9TL variant M19 Fab (Fab, V domains shown)
VH: B1 VH
VL: B1 VL with Y99M, I102L
notes: as for B1
B11: 9TL variant M22 Fab (Fab, V domains shown)
VH: B1 VH
VL: B1 VL with V101L, I102L
notes: as for B1
B12: 9TL variant M2 Fab (Fab, V domains shown)
VH: B1 VH
VL: B1 VL with L94N, I102L
notes: as for B1
B13: 9TL variant M1 Fab (Fab, V domains shown)
VH: B1 VH
VL: B1 VL with L94M, I102L
notes: as for B1
B14: 9TL variant M8 Fab (Fab, V domains shown)
VH: B1 VH
VL: B1 VL with L94Q, I102L
notes: as for B1
B15: 9TL variant M7 Fab (Fab, V domains shown)
VH: B1 VH
VL: B1 VL with L94S, I102L
notes: as for B1
B16: 9TL variant M9 Fab (Fab, V domains shown)
VH: B1 VH
VL: B1 VL with L94G, I102L
notes: as for B1
B17: 9TL variant M26 Fab (Fab, V domains shown)
VH: B1 VH
VL: B1 VL with V101A, I102L
notes: as for B1
B18: 9TL variant M20 Fab (Fab, V domains shown)
VH: B1 VH
VL: B1 VL with Y99S, I102L
notes: as for B1
B19: 9TL variant M3 Fab (Fab, V domains shown)
VH: B1 VH
VL: B1 VL with L94C, I102L
notes: as for B1
B20: 9TL variant M13 Fab (Fab, V domains shown)
VH: B1 VH
VL: B1 VL with T97S, I102L
notes: as for B1
B21: 9TL variant C6 new Fab (Fab, V domains shown)
VH: B1 VH
VL: B1 VL with I102T
notes: as for B1
B22: 9TL variant M23 Fab (Fab, V domains shown)
VH: B1 VH
VL: B1 VL with V101K, I102L
notes: as for B1
B23: 9TL variant M16 Fab (Fab, V domains shown)
VH: B1 VH
VL: B1 VL with Y99A, I102L
notes: as for B1
B24: 9TL variant M24 Fab (Fab, V domains shown)
VH: B1 VH
VL: B1 VL with V101H, I102L
notes: as for B1
B25: 9TL variant M27 Fab (Fab, V domains shown)
VH: B1 VH
VL: B1 VL with V101E, I102L
notes: as for B1
B26: 9TL variant M6 Fab (Fab, V domains shown)
VH: B1 VH
VL: B1 VL with L94K, I102L
notes: as for B1
B27: 9TL variant M12 Fab (Fab, V domains shown)
VH: B1 VH
VL: B1 VL with G96T, I102L
notes: as for B1
B28: 9TL variant M17 Fab (Fab, V domains shown)
VH: B1 VH
VL: B1 VL with Y99W, I102L
notes: as for B1

Target: T1, biotinylated Aβ1-40 peptide (biotinylated (N-biotinylated in Example 7))
T1 construct: captured on streptavidin (SA) chip; also called Biotinylated Aβ peptide 1-40; Aβ1-40 on SA chip
T1 sequence (peptide, as listed by the source): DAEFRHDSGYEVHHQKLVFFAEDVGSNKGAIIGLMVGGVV
Test: SPR, Fab over Aβ1-40 on SA chip; KD=koff/kon
Method: (§1) Affinities of 9TL Fab fragment and its variants Fab fragments were determined by Surface Plasmon Resonance (SPR) system (BIAcore 3000™, BIAcore, Inc., Piscaway, N.J.). SA chips (streptavidin) were used according to the supplier's instructions. Biotinylated Aβ peptide 1-40 was diluted into HBS-EP (10 mM HEPES pH 7.4, 150 mM NaCl, 3 mM EDTA, 0.005% P20) and injected over the chip at a concentration of 0.005 mg/mL. Using variable flow time across the individual chip channels, two ranges of antigen density were achieved: 10-200 response units (RU) for detailed kinetic studies and 500-600 RU for concentration studies and screening. […] HBS-EP buffer was used as running buffer for all the BIAcore assays. […] The concentrations of the Fab proteins were determined by ELISA and/or SDS-PAGE electrophoresis using a standard Fab of known concentration (determined by amino acid analysis). Kinetic association rates (kₒₙ) and dissociation rates (koff) were obtained simultaneously by fitting the data to a 1:1 Langmuir binding model (Karlsson, R. Roos, H. Fagerstam, L. Petersson, B. (1994). Methods Enzymology 6. 99-110) using the BIAevaluation program. Equilibrium dissociation constant (KD) values were calculated as koff/kₒₙ.
(§2) All amino acid substitutions of the variants shown in Table 3 are described relative to the sequence of 9TL. KD and other kinetic parameters were determined by BIAcore analysis described above with Aβ₁₋₄₀ immobilized on SA chip.

Row | Kd [nM] | Binder
1 | 1.45 | B1
2 | 2.11 | B2
3 | 15.7 | B3
4 | 5.03 | B4
5 | 4.72 | B5
6 | 6.29 | B6
7 | 26.1 | B7
8 | 25.2 | B8
9 | 3.13 | B9
10 | 5.35 | B10
11 | 12.6 | B11
12 | 3.46 | B12
13 | 2.7 | B13
14 | 21.4 | B14
15 | 18.9 | B15
16 | 24.5 | B16
17 | 28.3 | B17
18 | 6.29 | B18
19 | 4.09 | B19
20 | 1.23 | B20
21 | 2.58 | B21
22 | 15.7 | B22
23 | 2.2 | B23
24 | 18.9 | B24
25 | 37.7 | B25
26 | 12.9 | B26
27 | 10.4 | B27
28 | 3.14 | B28

Target: T1, biotinylated Aβ1-40 peptide
Test: SPR, Fab over Aβ1-40 on SA chip
Method: as §1, §2

Row | koff [s⁻¹] | kon [M⁻¹ s⁻¹] | Binder
29 | 0.00046 |  | B1
30 | 0.00067 |  | B2
31 | 0.005 |  | B3
32 | 0.0016 |  | B4
33 | 0.0015 |  | B5
34 | 0.002 |  | B6
35 | 0.0083 |  | B7
36 | 0.008 |  | B8
37 | 0.000995 |  | B9
38 | 0.0017 |  | B10
39 | 0.004 |  | B11
40 | 0.0011 |  | B12
41 | 0.00086 |  | B13
42 | 0.0068 |  | B14
43 | 0.006 |  | B15
44 | 0.0078 |  | B16
45 | 0.009 |  | B17
46 | 0.002 |  | B18
47 | 0.0013 |  | B19
48 | 0.00039 |  | B20
49 | 0.00092 | 356000 | B21
50 | 0.005 |  | B22
51 | 0.0007 |  | B23
52 | 0.006 |  | B24
53 | 0.012 |  | B25
54 | 0.0041 |  | B26
55 | 0.0033 |  | B27
56 | 0.001 |  | B28

Target: T1, biotinylated Aβ1-40 peptide
Test: SPR, Fab over Aβ1-40 on SA chip; kon may be assumed = 9TL (footnote 2)
Method: as §1, §2

Row | kon [M⁻¹ s⁻¹] | Binder
57 | 318000 | B1
58 | 318000 | B2
59 | 318000 | B3
60 | 318000 | B4
61 | 318000 | B5
62 | 318000 | B6
63 | 318000 | B7
64 | 318000 | B8
65 | 318000 | B9
66 | 318000 | B10
67 | 318000 | B11
68 | 318000 | B12
69 | 318000 | B13
70 | 318000 | B14
71 | 318000 | B15
72 | 318000 | B16
73 | 318000 | B17
74 | 318000 | B18
75 | 318000 | B19
76 | 318000 | B20
77 | 318000 | B22
78 | 318000 | B23
79 | 318000 | B24
80 | 318000 | B25
81 | 318000 | B26
82 | 318000 | B27
83 | 318000 | B28
